# Test results published in article PMC4720418, “Experimental validation of in silico model‐predicted isocitrate dehydrogenase and phosphomannose isomerase from D ehalococcoides mccartyi” (Microbial Biotechnology, 2015).
# Columns and labels:
# Assay in all cases: purified protein
# Format in all cases: biochemical, Dehalococcoides mccartyi
# [1] = substrate: NC(=O)c1ccc[n+]([C@@H]2O[C@H](COP(=O)(O)OP(=O)(O)OC[C@H]3O[C@@H](n4cnc5c(N)ncnc54)[C@H](O)[C@@H]3O)[C@@H](O)[C@H]2O)c1; details: D-isocitric acid as co-substrate (1 mM in standard assay), 10 mM MgCl2, 50 mM Tris-HCl pH 7.5 (standard assay; kinetics at selected pH), 30 °C, varied: cofactor
# [2] = substrate: NC(=O)c1ccc[n+]([C@@H]2O[C@H](COP(=O)(O)OP(=O)(O)OC[C@H]3O[C@@H](n4cnc5c(N)ncnc54)[C@H](OP(=O)(O)O)[C@@H]3O)[C@@H](O)[C@H]2O)c1; details: D-isocitric acid as co-substrate (1 mM in standard assay), 10 mM MgCl2, 50 mM Tris-HCl pH 7.5 (standard assay; kinetics at selected pH), 30 °C, varied: cofactor
# [3] = substrate: O=C(O)C[C@H](C(=O)O)[C@@H](O)C(=O)O; details: 0.3 mM NADP+, 10 mM MgCl2, 50 mM Tris-HCl pH 7.5 (standard assay; kinetics at selected pH), 30 °C
protein,measurement,setting,value
"DmIDH (KB1_0495) (Dehalococcoides mccartyi CBDB1) (protein, recombinant, N-terminal 6xHis tag with TEV site (modified pET-15b), E. coli BL21(DE3), Ni-NTA and gel filtration) MYHNVTLIPGDGIGPEISEATRRVLEATGVKFNWEVVNAGADVVAEYGTPLPDMVLESIRKNKVAIKGPVTTPVGSGFRSVNVGMRKALNLYTCLRPCKTYPGVPSRYDNVDIVIVRENMEDLYAGIEFEKGSAEALRLIEFIKENKKVEIRTDSGISIKPISVFGTERIFRWAFKYAKDNNRKKVTAVHKANIMKYSDGLFLAVGRKVAEEYPEIEFEDRIVDNMTMQLVKTPTQFDILVCPNLYGDILSDLCAGLVGGLGVAPGANIGDEYALFEPTHGSAPKYKGLNKVNPMAMMLSGVLMLRYLKEEKAADKLENAIAAVIAEGKSVTYDMLSPDKQAVAVGTSQVADAIIAKMK",Km,[1],120 ± 40 µM
same,Vmax,[1],0.32 µmol/min/mg
same,kcat,[1],0.22 ± 0.03 s⁻¹
same,kcat/Km,[1],2000 ± 1000 M⁻¹ s⁻¹
same,Km,[2],27 ± 20 µM
same,Vmax,[2],20.8 µmol/min/mg
same,kcat,[2],14.6 ± 1 s⁻¹
same,kcat/Km,[2],540000 ± 1000 M⁻¹ s⁻¹
same,Km,[3],110 ± 10 µM
same,Vmax,[3],21.3 µmol/min/mg
same,kcat,[3],15 ± 1 s⁻¹
same,kcat/Km,[3],139600 ± 1000 M⁻¹ s⁻¹
